Source: paper PMC3409459, “Absorption, distribution, metabolism and excretion of peginesatide, a novel erythropoiesis-stimulating agent, in rats” (Xenobiotica; the Fate of Foreign Compounds in Biological …, 2011)

Assay: Tissue distribution of radioactivity by LSC following combustion, albino rats
Assay type: in vivo, male Sprague-Dawley (albino) rats
Conditions: mean ± SD, n=3
Description: Total captured radioactivity was subsequently measured via LSC.
Male Sprague-Dawley (albino) rats (n = 21; three per time point) were administered a single IV dose of 5 mg·kg^−1 [^14C]-peginesatide (27.5 μCi/kg) and tissue concentrations of radioactivity determined at 0.25, 6, and 24 h, and 7,14,30 and 60 days following dosing. Similarly, male Long Evans (pigmented) rats (n = 21; three per time point) were administered a single IV dose of 5 mg-kg^−1 [^14C]-peginesatide and plasma, skin, and eye concentrations of radioactivity were measured at the various time points through 60 days after dosing. At each time point, blood was collected, the animals sacrificed, and tissues excised. Tissues collected from the Sprague-Dawley rats included blood, plasma, adrenals, bone marrow, brain, eyes, fat, femur, Harderian glands, heart, hypophysis, intestine, kidneys, lungs, liver, pancreas, skeletal muscle, skin, spinal cord, spleen, stomach, submaxillary glands, testes, thymus, thyroid gland, and urinary bladder. Plasma, eyes, non-pigmented skin, and pigmented skin were collected from Long Evans rats. All tissue samples were measured for radioactivity by LSC following combustion. The liver and intestine were first homogenized in distilled water (20% w/v) prior to analysis. The concentration of radioactivity in the blood, plasma, and tissues was calculated and expressed as ug equiv·g^-1 or mLbased on the LSC counts and the specific activity of the dosing solution.

[1] = 7 Days after single IV 5 mg·kg^−1, LSC
[2] = 14 Days after single IV 5 mg·kg^−1, LSC
[3] = 30 Days after single IV 5 mg·kg^−1, LSC
[4] = 60 Days after single IV 5 mg·kg^−1, LSC

Peginesatide
Concentration of the radioactivity, Adrenals [1]: 10.2 ± 1.31 μg equiv·g^−1 or mL
Concentration of the radioactivity, Blood [1]: 3.87 ± 0.291 μg equiv·g^−1 or mL
Concentration of the radioactivity, Bone (femur) [1]: 0.788 ± 0.374 μg equiv·g^−1 or mL
Concentration of the radioactivity, Bone marrow [1]: 8.87 ± 0.641 μg equiv·g^−1 or mL
Concentration of the radioactivity, Brain [1]: 0.200 ± 0.021 μg equiv·g^−1 or mL
Concentration of the radioactivity, Eyes [1]: 0.885 ± 0.111 μg equiv·g^−1 or mL
Concentration of the radioactivity, Fat [1]: 2.11 ± 0.693 μg equiv·g^−1 or mL
Concentration of the radioactivity, Harderian glands [1]: 4.41 ± 0.100 μg equiv·g^−1 or mL
Concentration of the radioactivity, Heart [1]: 4.01 ± 0.344 μg equiv·g^−1 or mL
Concentration of the radioactivity, Intestine [1]: 3.05 ± 0.259 μg equiv·g^−1 or mL
Concentration of the radioactivity, Kidneys [1]: 5.68 ± 0.386 μg equiv·g^−1 or mL
Concentration of the radioactivity, Liver [1]: 12.5 ± 0.727 μg equiv·g^−1 or mL
Concentration of the radioactivity, Lungs [1]: 4.26 ± 0.285 μg equiv·g^−1 or mL
Concentration of the radioactivity, Pancreas [1]: 9.74 ± 0.231 μg equiv·g^−1 or mL
Concentration of the radioactivity, Pituitary [1]: 8.31 ± 0.594 μg equiv·g^−1 or mL
Concentration of the radioactivity, Plasma [1]: 7.80 ± 0.541 μg equiv·g^−1 or mL
Concentration of the radioactivity, Skeletal muscle [1]: 0.563 ± 0.119 μg equiv·g^−1 or mL
Concentration of the radioactivity, Skin [1]: 3.06 ± 0.055 μg equiv·g^−1 or mL
Concentration of the radioactivity, Spinal cord [1]: 0.129 ± 0.067 μg equiv·g^−1 or mL
Concentration of the radioactivity, Spleen [1]: 11.5 ± 0.204 μg equiv·g^−1 or mL
Concentration of the radioactivity, Stomach [1]: 2.36 ± 0.262 μg equiv·g^−1 or mL
Concentration of the radioactivity, Submandibular lymph nodes [1]: 10.6 ± 0.553 μg equiv·g^−1 or mL
Concentration of the radioactivity, Testes [1]: 4.98 ± 0.222 μg equiv·g^−1 or mL
Concentration of the radioactivity, Thymus [1]: 3.39 ± 0.560 μg equiv·g^−1 or mL
Concentration of the radioactivity, Thyroid gland [1]: 17.0 ± 5.26 μg equiv·g^−1 or mL
Concentration of the radioactivity, Urinary bladder [1]: 4.52 ± 1.01 μg equiv·g^−1 or mL
Concentration of the radioactivity, Adrenals [2]: 9.15 ± 2.39 μg equiv·g^−1 or mL
Concentration of the radioactivity, Blood [2]: 1.03 ± 0.229 μg equiv·g^−1 or mL
Concentration of the radioactivity, Bone (femur) [2]: 0.388 ± 0.054 μg equiv·g^−1 or mL
Concentration of the radioactivity, Bone marrow [2]: 6.33 ± 0.683 μg equiv·g^−1 or mL
Concentration of the radioactivity, Brain [2]: 0.102 ± 0.014 μg equiv·g^−1 or mL
Concentration of the radioactivity, Eyes [2]: 0.765 ± 0.022 μg equiv·g^−1 or mL
Concentration of the radioactivity, Fat [2]: 1.14 ± 0.475 μg equiv·g^−1 or mL
Concentration of the radioactivity, Harderian glands [2]: 5.21 ± 0.433 μg equiv·g^−1 or mL
Concentration of the radioactivity, Heart [2]: 2.73 ± 0.254 μg equiv·g^−1 or mL
Concentration of the radioactivity, Intestine [2]: 1.78 ± 0.297 μg equiv·g^−1 or mL
Concentration of the radioactivity, Kidneys [2]: 4.49 ± 1.02 μg equiv·g^−1 or mL
Concentration of the radioactivity, Liver [2]: 8.53 ± 0.754 μg equiv·g^−1 or mL
Concentration of the radioactivity, Lungs [2]: 3.38 ± 0.703 μg equiv·g^−1 or mL
Concentration of the radioactivity, Pancreas [2]: 9.10 ± 0.629 μg equiv·g^−1 or mL
Concentration of the radioactivity, Pituitary [2]: 6.25 ± 1.17 μg equiv·g^−1 or mL
Concentration of the radioactivity, Plasma [2]: 2.00 ± 0.605 μg equiv·g^−1 or mL
Concentration of the radioactivity, Skeletal muscle [2]: 0.379 ± 0.108 μg equiv·g^−1 or mL
Concentration of the radioactivity, Skin [2]: 1.70 ± 0.109 μg equiv·g^−1 or mL
Concentration of the radioactivity, Spinal cord [2]: 0.069 ± 0.030 μg equiv·g^−1 or mL
Concentration of the radioactivity, Spleen [2]: 23.6 ± 2.82 μg equiv·g^−1 or mL
Concentration of the radioactivity, Stomach [2]: 2.00 ± 0.118 μg equiv·g^−1 or mL
Concentration of the radioactivity, Submandibular lymph nodes [2]: 10.9 ± 1.32 μg equiv·g^−1 or mL
Concentration of the radioactivity, Testes [2]: 5.19 ± 0.448 μg equiv·g^−1 or mL
Concentration of the radioactivity, Thymus [2]: 1.81 ± 0.249 μg equiv·g^−1 or mL
Concentration of the radioactivity, Thyroid gland [2]: 13.2 ± 3.52 μg equiv·g^−1 or mL
Concentration of the radioactivity, Urinary bladder [2]: 2.30 ± 0.326 μg equiv·g^−1 or mL
Concentration of the radioactivity, Adrenals [3]: 7.90 ± 1.57 μg equiv·g^−1 or mL
Concentration of the radioactivity, Blood [3]: 0.466 ± 0.054 μg equiv·g^−1 or mL
Concentration of the radioactivity, Bone (femur) [3]: 0.278 ± 0.057 μg equiv·g^−1 or mL
Concentration of the radioactivity, Bone marrow [3]: 4.12 ± 1.37 μg equiv·g^−1 or mL
Concentration of the radioactivity, Brain [3]: 0.080 ± 0.010 μg equiv·g^−1 or mL
Concentration of the radioactivity, Eyes [3]: 0.511 ± 0.147 μg equiv·g^−1 or mL
Concentration of the radioactivity, Fat [3]: 0.582 ± 0.070 μg equiv·g^−1 or mL
Concentration of the radioactivity, Harderian glands [3]: 3.88 ± 0.907 μg equiv·g^−1 or mL
Concentration of the radioactivity, Heart [3]: 1.57 ± 0.244 μg equiv·g^−1 or mL
Concentration of the radioactivity, Intestine [3]: 1.40 ± 0.183 μg equiv·g^−1 or mL
Concentration of the radioactivity, Kidneys [3]: 3.03 ± 0.429 μg equiv·g^−1 or mL
Concentration of the radioactivity, Liver [3]: 3.45 ± 0.808 μg equiv·g^−1 or mL
Concentration of the radioactivity, Lungs [3]: 1.78 ± 0.237 μg equiv·g^−1 or mL
Concentration of the radioactivity, Pancreas [3]: 6.67 ± 1.70 μg equiv·g^−1 or mL
Concentration of the radioactivity, Pituitary [3]: 7.24 ± 0.292 μg equiv·g^−1 or mL
Concentration of the radioactivity, Plasma [3]: 0.780 ± 0.099 μg equiv·g^−1 or mL
Concentration of the radioactivity, Skeletal muscle [3]: 0.152 ± 0.012 μg equiv·g^−1 or mL
Concentration of the radioactivity, Skin [3]: 0.889 ± 0.228 μg equiv·g^−1 or mL
Concentration of the radioactivity, Spinal cord [3]: 0.033 ± 0.016 μg equiv·g^−1 or mL
Concentration of the radioactivity, Spleen [3]: 17.7 ± 4.96 μg equiv·g^−1 or mL
Concentration of the radioactivity, Stomach [3]: 1.28 ± 0.106 μg equiv·g^−1 or mL
Concentration of the radioactivity, Submandibular lymph nodes [3]: 7.86 ± 1.19 μg equiv·g^−1 or mL
Concentration of the radioactivity, Testes [3]: 4.33 ± 1.00 μg equiv·g^−1 or mL
Concentration of the radioactivity, Thymus [3]: 1.14 ± 0.138 μg equiv·g^−1 or mL
Concentration of the radioactivity, Thyroid gland [3]: 13.9 ± 3.33 μg equiv·g^−1 or mL
Concentration of the radioactivity, Urinary bladder [3]: 1.77 ± 0.889 μg equiv·g^−1 or mL
Concentration of the radioactivity, Adrenals [4]: 5.32 ± 0.996 μg equiv·g^−1 or mL
Concentration of the radioactivity, Blood [4]: 0.170 ± 0.036 μg equiv·g^−1 or mL
Concentration of the radioactivity, Bone (femur) [4]: 0.046 ± 0.001 μg equiv·g^−1 or mL
Concentration of the radioactivity, Bone marrow [4]: 0.361 ± 0.142 μg equiv·g^−1 or mL
Concentration of the radioactivity, Brain [4]: 0.057 ± 0.006 μg equiv·g^−1 or mL
Concentration of the radioactivity, Eyes [4]: 0.299 ± 0.076 μg equiv·g^−1 or mL
Concentration of the radioactivity, Fat [4]: 0.456 ± 0.135 μg equiv·g^−1 or mL
Concentration of the radioactivity, Harderian glands [4]: 2.75 ± 0.281 μg equiv·g^−1 or mL
Concentration of the radioactivity, Heart [4]: 1.14 ± 0.205 μg equiv·g^−1 or mL
Concentration of the radioactivity, Intestine [4]: 0.624 ± 0.033 μg equiv·g^−1 or mL
Concentration of the radioactivity, Kidneys [4]: 2.11 ± 0.574 μg equiv·g^−1 or mL
Concentration of the radioactivity, Liver [4]: 1.17 ± 0.199 μg equiv·g^−1 or mL
Concentration of the radioactivity, Lungs [4]: 1.05 ± 0.238 μg equiv·g^−1 or mL
Concentration of the radioactivity, Pancreas [4]: 5.92 ± 0.436 μg equiv·g^−1 or mL
